Drawing on PMC3130059, this text covers dH, stoichiometry N and Kd for 2 substances.

Assay [1] addresses K-RasB-K175A (UniProt P01116). Nature of the assay: ITC; 0.3–0.8 mM CaM in the syringe injected into 20–40 µM Ras protein (GppNHp form) in the cell; […]; 20 mM HEPES pH 7.4, 150 mM NaCl, 1 mM CaCl2, 1 mM MgCl2; single set of identical sites model.
In assay [2] the target is full-length K-RasB (unprocessed) (UniProt P01116). Described as above.
For assay [3], the target named is H-Ras-(KKKKKK), chimeric H-Ras with the polylysine region of K-RasB at 175-180 (UniProt P01112). The description is as above.
The target in assay [4] is farnesylated K-RasB-K175A (UniProt P01116). Described as above.
The target of assay [5] is farnesylated K-RasB (UniProt P01116). Described as above.
Assay [6] concerns the target dansyl-calmodulin (dansyl-CaM) (bovine) (UniProt P62157). Briefly: other fluorescence titration; 1 µM dansyl-CaM titrated with Ras protein (GppNHp form); […]; 20 mM HEPES pH 7.4, 150 mM NaCl, 1 mM CaCl2, 1 mM MgCl2; excitation 335 nm, emission at 480 nm.

Usually stoichiometry N stands for the number of molecules, sites or subunits per partner or assembly. The term Kd denotes the concentration at which binding is half-saturated. Lower therefore signals a tighter complex. As to “calmodulin (CaM), Ca^2+-saturated, from bovine brain (from UniProt P62157 1-149) (natural protein)”, the dH in assay [1] was 2.48 kcal/mol; in assay [2] it was 3.63 kcal/mol; in assay [3], 6.16 kcal/mol; in assay [4], 1.01 kcal/mol; in assay [5], 3.33 kcal/mol. Also, the stoichiometry N is 0.995 in assay [1]; 0.924 in assay [2]; 0.903 in assay [3]; 0.972 in assay [4]; 1.13 in assay [5]. In assay [3], this substance came in with a Kd of 3.89 µM.
“H-Ras-(KKKKKK), chimeric H-Ras with the polylysine region of K-RasB at 175-180 (from UniProt P01112 1-189) (natural protein)” registered a Kd in assay [6] of 2.53 µM.
